Where two headings read alike, the source gives them in different places.
What was measured:
[1] = molecular target: 31 kDa recombinant Tic40s form (Brassica napus); assay: dynamic light scattering
[2] = molecular target: 31 kDa recombinant Tic40s form (Brassica napus); assay: dynamic light scattering; remark: listed apart in the source
[3] = molecular target: Recombinant Tic40s with a carboxyl-terminal histidine tag (40 kDa form) (Brassica napus); assay: AUC
[4] = molecular target: Recombinant Tic40s with a carboxyl-terminal histidine tag (40 kDa form) (Brassica napus); assay: AUC; remark: listed apart in the source

31 kDa recombinant Tic40s form (domain or fragment)
stoichiometry N [1]: 2
stoichiometry N [2]: 4

Recombinant Tic40s with a carboxyl-terminal histidine tag (40 kDa form) (domain or fragment)
stoichiometry N [3]: 4
stoichiometry N [4]: 3
